Drawing on CN115785273A (DONGGUAN PENGZHI BIOTECHNOLOGY CO LTD, dated 2023), this text covers Kd, koff and kon for 2 molecules.

The term Kd denotes the concentration at which binding is half-saturated. Higher therefore signals a looser complex. Broadly, the koff is the rate constant with which the complex falls apart. Read a low koff as slow dissociation. What is called kon is a measure of how fast the partners come together. A high value points to faster complex formation.

The test has as its target T1, PG I蛋白(fitzgerald，30R-AP038) (UniProt P0DJD8 16-388).
T1 construct: Commercial antigen; Pepsinogen I is a group of isozymogens (PGA3/PGA4/PGA5); also called 胃蛋白酶原I; HPG I
Briefly: BLI, AMC sensors, antibody captured at 10 μg/mL, PG I protein in serial dilution in PBST.

T1 sequence (P0DJD8 16-388): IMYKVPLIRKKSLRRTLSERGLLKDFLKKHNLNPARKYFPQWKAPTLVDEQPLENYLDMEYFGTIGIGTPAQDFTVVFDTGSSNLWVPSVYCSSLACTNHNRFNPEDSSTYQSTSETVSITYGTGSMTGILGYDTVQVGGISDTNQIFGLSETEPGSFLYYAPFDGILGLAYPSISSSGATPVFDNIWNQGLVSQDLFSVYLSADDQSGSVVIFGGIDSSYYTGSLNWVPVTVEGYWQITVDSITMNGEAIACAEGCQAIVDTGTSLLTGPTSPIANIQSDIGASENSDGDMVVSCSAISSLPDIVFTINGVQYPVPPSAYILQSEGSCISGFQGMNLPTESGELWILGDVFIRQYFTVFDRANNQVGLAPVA

With 对照抗体 (antibody), the Kd stood at 0.297 nM, the koff turned out to be 0.000273 s⁻¹ and the kon was determined as 919000 M⁻¹ s⁻¹.

B1: Anti-HPG I 8C20单克隆抗体 (antibody, V domains shown)
VH: QVQLQQPGAELVRPGASVKLSCKASDYTFTSYWMNWVKQRPEQGLEWIGRIDPYDSETHYNQKFKDKAILTVDKSSSTAYMQLSSLTSEDSAVYYCARFSMVVAVYAMDYWGQGTSVTVSS
VL: DIQMTQSPASLSASVGETVTITCRASGNIHNYLAWFQQKQGKSPQILVYYAKTLADGVPSRFSGSGSGTQFSLKINSLQPEDFGSYYCQHFWSTPWTFGGGTKLEIK
In the case of B1, binding was put at a Kd of 0.0309 nM, the koff stood at 2.85e-05 s⁻¹ and the on-rate (kon) is 921000 M⁻¹ s⁻¹.
